# Measured values taken from patent US6953656B2, “Direct, externally imposed control of polypeptides” (Massachusetts Institute of Technology, priority 2000, dated 2005).
# “Also recorded” adds a separate entry of the source. Where no end group is shown, it is not given here.
# Assays:
# thrombin = thrombin (Homo sapiens, UniProt P00734); conditions: cited from earlier work
# [1] = target: T1, Ribonuclease S (S-protein) (Bos taurus, UniProt P61823); assay: RNase S activity assay: increase in acid soluble nucleotides (A280) during hydrolysis of poly-(C), with or without 1 GHz RFMF; type: biochemical; conditions: for RNase S activity (digested polyC, A280) with the RFMF on compared with RFMF off: 37° C., as a function of reaction time
# T1 construct: incubated with the rest of the Ribonuclease S complex, the S-protein; purchased Novagen, Madison, Wis
# T1 sequence (P61823 47-150 limits assumed): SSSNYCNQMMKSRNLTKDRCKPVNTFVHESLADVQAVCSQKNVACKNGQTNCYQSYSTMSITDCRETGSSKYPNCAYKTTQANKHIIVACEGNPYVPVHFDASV
# Description: In this example, ribonuclease S was associated with a gold nanocrystal modulator (the system described in Example 1). The activity of the enzyme was controlled by induction heating of the modulator using an alternating magnetic field. The frequency of the alternating magnetic field was 1 GHz in the radiofrequency range. Accordingly, the alternating magnetic field is referred to as a radiofrequency magnetic field (RFMF). The modulator S-peptide and S-protein complex was incubated with the substrate, polyC, in solution at 37° C. The tube containing the sample was placed in a coil inside which the RFMF was generated and switched on. Activity was monitored by measuring the amount of digested polyC in the solution. PolyC was purified from the rest of the sample by precipitation with trichloroacetic acid (TCA). The activity was the amount of digested polyC, which is determined by the optical absorption of the sample at 280 nm.
# The assay for measuring RNase activity was based on the measurement of increase in acid soluble nucleotides during the hydrolysis of poly-(C) (FIG. 14(a)). All concentrations were expressed as the final concentrations in the assay system. The S-protein (Novagen, Madison, Wis.) with various concentrations of S18 peptide was pre-incubated in 20 mM Na-phosphate buffer, pH 6.0; 100 mM NaCl at 37° C. for 10 minutes followed by initiating the reaction by the addition of the substrate, 0.39 mM poly [C] (sigma). At different time intervals, aliquots were quenched with 5% trichloroacetic acid (TCA). The reaction mixture was kept on ice for 5 minutes and subsequently spun at 13,000 rpm (Biofuge A) for 10 min.
# Alternating magnetic fields are generated by applying an electric current to a copper coil that coils around a quartz cuvette. Currents with frequencies in the radio frequency range are obtained by using a RF generator with a current amplifier. The RF is pulsed at 15 second intervals. The RF power levels are varied from −8 dBm to −0.1 dBm. The MF frequency used is 1 GHz.
# [2] = target: T1, Ribonuclease S (S-protein); assay: as above; type: biochemical
compound,measurement,setting,value
"NC(N)=NCCC[C@H](NC(=O)[C@@H]1CCCN1C(=O)[C@H](N)Cc1ccccc1)C(=O)CCl [PPACK, D-Phe-L-Pro-L-Arg-chloromenthy ketone]",Inhibition of thrombin activity,thrombin,inhibitory effect
Au-S18: S18 peptide covalently linked via N-terminal cysteine to a single 1.4 nm gold nanocrystal; tested complexed with S-protein (CGGKETAAAKFERQHMDS; also: linked via N-terminal cysteine to a 1.4 nm gold nanocrystal),RF power at the 50% activity,[1]; 1 GHz RFMF,−4 dBm
same,"Enzymatic activity when combined with S-protein, no RF (RF OFF state)",[1],active
same,Effect of higher RF levels on RNase S activity,"[1]; RF −4, −3, −2 to −1 dBm, 1 GHz",drastic effect
same,Effect of low RF levels on RNase S activity,"[1]; RF −8 to −5 dBm, 1 GHz",no significant effect
same,Activity once recovered after RF,[1]; after recovery time,fully active
same,RNase S activity with the RFMF on compared with RFMF off as a function of modulator-S-peptide concentration,"[1]; modulator linked to S-peptide, RFMF 1 GHz, entire concentration range",significantly less than with the RFMF off
same,"RNase S activity (digested polyC, A280) with the RFMF on compared with RFMF off","[1]; modulator linked to S-peptide, RFMF 1 GHz, listed as Au-S18/S peptide",reduced
same,"RNase S activity (digested polyC, A280) with the RFMF on compared with RFMF off","[1]; modulator linked to S-peptide, RFMF 1 GHz, listed as gold nanoparticle linked S-peptide",transiently halting the enzyme activity
same,"RNase S activity (digested polyC, A280) with the RFMF on compared with RFMF off","[1]; modulator linked to S-peptide, RFMF 1 GHz, listed as modulator S-peptide-S-protein complex",less than with the RFMF off
same,"Enzymatic activity when combined with S-protein, no RF (RF OFF state)",[2]; listed as gold nanoparticle linked S-peptide,indistinguishable from the S-peptide without the nanoparticles
"CGAGAG-AETEYDSLYPEDDL (CGAGAGAETEYDSLYPEDDL; thrombin inhibitory peptide: fibrin 414-27) [414-427, fibrin gamma chain fragment peptide]",Inhibition of thrombin activity,thrombin,strongly inhibit
"CGAGAG-NGDFEEIPEEYL (CGAGAGNGDFEEIPEEYL; thrombin inhibitory peptide: hirudin 53-64) [hirugen53-64, fragment of Hirudin]",Affinity for thrombin,thrombin,very high affinity
"CGAGAG-VRPEHPAETEYDSLYPEDDL (CGAGAGVRPEHPAETEYDSLYPEDDL; thrombin inhibitory peptide: fibrin 408-27) [408-427, fibrin gamma chain fragment peptide]",Inhibition of thrombin activity,thrombin,strongly inhibit
Hirudin,Affinity for thrombin,thrombin,extremely high affinity
same,Inhibition of thrombin activity,thrombin,inhibits the enzymatic cleavage of fibrinogen by thrombin
S15: residues 1 to 15 of the wild type S-peptide of ribonuclease S (KETAAAKFERQHMDS) [reference compound],"Enzymatic activity when combined with S-protein, no RF (RF OFF state)",[1],full enzymatic activity
same,"Enzymatic activity when combined with S-protein, no RF (RF OFF state)",[2]; listed as S-peptide with only the N-terminal 15 residues,completely restored the enzymatic activity
n-CGGKETAAAKFERQHMDS-c (S18 peptide),"Enzymatic activity when combined with S-protein, no RF (RF OFF state)",[1],restored the RNase S enzyme activity; also recorded: indistinguishable from that of the S15 native peptide
